Experimental data taken from the supplement of paper PMC7125110.
± gives the standard error. For some of these results: Fewer inactive variants are shown than the library holds.

B1: glmS ribozyme (parent)
chain: AUAAAAGCGCCAGAACUACAGAAAUGUAGUUGACGAGGAGGAGGUUUAUCGAAUUUUCGGCGGAUGCCUCCAAA

Legend:
Conditions in all cases: with glucosamine-6-phosphate
[1] = variants of: B1; assay: kcat; higher = faster cleavage; RNA array
Procedure, shortened: (§1)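 Weighted Michaelis–Menten fits across concentrations supplied kcat and KM, based on kobs from one- or two-exponential decay fits to normalised per-tile medians. The data came from barcoded ribozyme variants transcribed in situ by E. coli RNA polymerase on sequenced MiSeq chips and tracked at 37 °C by a hybridised Cy3 probe. Glucosamine-6-phosphate (40 μM to 10 mM) in HEPES/KCl/Mg(OAc)2 buffer was flowed in.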

[2] = variants of: B1; assay: KM; higher = weaker cofactor use; RNA array
Procedure, shortened: as §1

[3] = variants of: B1; assay: self-cleavage kobs at 40 uM GlcN6P; higher = faster cleavage; RNA array
Procedure, shortened: as §1

[4] = variants of: B1; assay: self-cleavage kobs at 160 uM GlcN6P; higher = faster cleavage; RNA array
Procedure, shortened: as §1

[5] = variants of: B1; assay: self-cleavage kobs at 640 uM GlcN6P; higher = faster cleavage; RNA array
Procedure, shortened: as §1

[6] = variants of: B1; assay: self-cleavage kobs at 2500 uM GlcN6P; higher = faster cleavage; RNA array
Procedure, shortened: as §1

[7] = variants of: B1; assay: self-cleavage kobs at 10000 uM GlcN6P; higher = faster cleavage; RNA array
Procedure, shortened: as §1

Variant	kcat [1]	KM [2]	self-cleavage kobs at 40 uM GlcN6P [3]	self-cleavage kobs at 160 uM GlcN6P [4]	self-cleavage kobs at 640 uM GlcN6P [5]	self-cleavage kobs at 2500 uM GlcN6P [6]	self-cleavage kobs at 10000 uM GlcN6P [7]
A15U C70U	0.00472 ± 0.0018 s⁻¹	1330 ± 650 µM	0.000195 ± 1.7e-05 s⁻¹	0.000378 ± 4.7e-05 s⁻¹	0.00147 ± 0.00031 s⁻¹	0.00286 ± 0.00048 s⁻¹	0.00469 ± 0.00065 s⁻¹
A15U G32U C67U	0.000433 ± 0.00015 s⁻¹				3.29e-05 ± 1.4e-05 s⁻¹	6.84e-05 ± 1.9e-05 s⁻¹	0.000204 ± 3.8e-05 s⁻¹
C16G G59A	1.51e-05 ± 3.3e-06 s⁻¹						
C11U A12U	0.00624 ± 0.00051 s⁻¹	1290 ± 150 µM	0.000179 ± 1.8e-05 s⁻¹	0.000886 ± 0.00016 s⁻¹	0.00209 ± 0.00035 s⁻¹	0.00418 ± 0.00075 s⁻¹	0.00547 ± 0.00057 s⁻¹
A14C U45A	0.00955 ± 0.0035 s⁻¹		0.000245 ± 3.9e-05 s⁻¹	0.000909 ± 0.00039 s⁻¹	0.00207 ± 0.00049 s⁻¹	0.00469 ± 0.00097 s⁻¹	0.0131 ± 0.0028 s⁻¹
U45C U65C	0.000282 ± 2.2e-05 s⁻¹	6720 ± 780 µM				7.8e-05 ± 1.7e-05 s⁻¹	0.000167 ± 4.8e-05 s⁻¹
C8U C61A	< 1e-05 s⁻¹						
A33U G60C	< 1e-05 s⁻¹		< 1e-05 s⁻¹		< 1e-05 s⁻¹		< 1e-05 s⁻¹
U30G G41C	0.00013 ± 5.4e-06 s⁻¹	2760 ± 240 µM				6.27e-05 ± 1.2e-05 s⁻¹	0.000101 ± 2.7e-05 s⁻¹
A12U U55C	0.0176 ± 0.0056 s⁻¹	464 ± 200 µM	0.0016 ± 0.00016 s⁻¹	0.00304 ± 0.00062 s⁻¹	0.0204 ± 0.0053 s⁻¹	0.0186 ± 0.0045 s⁻¹	0.0162 ± 0.0029 s⁻¹
A15U U31G	0.00129 ± 0.00024 s⁻¹	2960 ± 980 µM	1.82e-05 ± 8.3e-06 s⁻¹	0.000104 ± 2.2e-05 s⁻¹	0.000193 ± 3.7e-05 s⁻¹	0.000572 ± 9.4e-05 s⁻¹	0.00102 ± 0.00012 s⁻¹
C34U C58A	< 1e-05 s⁻¹		< 1e-05 s⁻¹		< 1e-05 s⁻¹	< 1e-05 s⁻¹	
G13A C70G	3.04e-05 ± 1.3e-05 s⁻¹				5.03e-05 ± 1.9e-05 s⁻¹	5.41e-05 ± 1.5e-05 s⁻¹	
A6U U46A	0.000115 ± 1.6e-05 s⁻¹						
U57A C58A	4.9e-05 ± 5.6e-06 s⁻¹					4.44e-05 ± 1.1e-05 s⁻¹	4.41e-05 ± 9.8e-06 s⁻¹
G29C A52U	5.44e-05 ± 2.8e-06 s⁻¹	1790 ± 390 µM	< 1e-05 s⁻¹			3.25e-05 ± 1.4e-05 s⁻¹	4.6e-05 ± 1e-05 s⁻¹
G13C C58A C61U C70G	1.31e-05 ± 2.2e-06 s⁻¹						

Variant	kcat [1]	KM [2]	self-cleavage kobs at 40 uM GlcN6P [3]	self-cleavage kobs at 160 uM GlcN6P [4]	self-cleavage kobs at 640 uM GlcN6P [5]	self-cleavage kobs at 2500 uM GlcN6P [6]	self-cleavage kobs at 10000 uM GlcN6P [7]
U31C G44U C67G	0.00162 ± 0.00031 s⁻¹	2430 ± 830 µM			0.00032 ± 7.1e-05 s⁻¹	0.0011 ± 0.00027 s⁻¹	0.00124 ± 0.00024 s⁻¹
C67U C68A	4.58e-05 ± 9.2e-06 s⁻¹				4.09e-05 ± 9.8e-06 s⁻¹	5.66e-05 ± 7.5e-06 s⁻¹	2.96e-05 ± 8.7e-06 s⁻¹
C11A C61G	1.14e-05 ± 3.7e-06 s⁻¹		< 1e-05 s⁻¹				
U57A C70U	0.000272 ± 5.5e-05 s⁻¹	2300 ± 790 µM		5.07e-05 ± 2.3e-05 s⁻¹	5.92e-05 ± 7.8e-06 s⁻¹	0.000133 ± 1.9e-05 s⁻¹	0.000234 ± 3.8e-05 s⁻¹
U57C C71G	1.18e-05 ± 1.2e-06 s⁻¹		< 1e-05 s⁻¹				
A33U C71G	1.4e-05 ± 2.4e-06 s⁻¹						1.47e-05 ± 7.1e-06 s⁻¹
U31G C71G	0.000461 ± 0.0001 s⁻¹	408 ± 180 µM	5.48e-05 ± 1.3e-05 s⁻¹	0.000111 ± 2.7e-05 s⁻¹		0.000329 ± 7.1e-05 s⁻¹	0.000555 ± 9.7e-05 s⁻¹
A6U A15C	7.81e-05 ± 1.6e-05 s⁻¹	4250 ± 2000 µM	< 1e-05 s⁻¹			2.58e-05 ± 7.8e-06 s⁻¹	5.56e-05 ± 8.2e-06 s⁻¹
A39U C70G	0.000797 ± 0.00021 s⁻¹	1500 ± 720 µM	4.48e-05 ± 9.1e-06 s⁻¹	6.66e-05 ± 2e-05 s⁻¹	0.000201 ± 3.6e-05 s⁻¹	0.000522 ± 8.8e-05 s⁻¹	0.000713 ± 0.0001 s⁻¹
U49G C70G	4.12e-05 ± 2.8e-06 s⁻¹			3.09e-05 ± 1.3e-05 s⁻¹	4.22e-05 ± 9e-06 s⁻¹	3.6e-05 ± 8e-06 s⁻¹	4.11e-05 ± 6e-06 s⁻¹
A39G U55A	0.0158 ± 0.0027 s⁻¹	399 ± 110 µM	0.00131 ± 0.00023 s⁻¹	0.00551 ± 0.0011 s⁻¹	0.0115 ± 0.0025 s⁻¹	0.0107 ± 0.0029 s⁻¹	0.017 ± 0.0039 s⁻¹
U46C A52G	0.000634 ± 0.00015 s⁻¹	5990 ± 2100 µM			7.1e-05 ± 1.4e-05 s⁻¹	0.000161 ± 3.6e-05 s⁻¹	0.000412 ± 7e-05 s⁻¹
C16A A39C U65G	5.91e-05 ± 2.8e-05 s⁻¹					8.69e-05 ± 3e-05 s⁻¹	
U46G U55G	0.00623 ± 0.0016 s⁻¹	2040 ± 690 µM	0.000153 ± 2.1e-05 s⁻¹	0.000395 ± 8.6e-05 s⁻¹	0.00125 ± 0.00021 s⁻¹	0.00414 ± 0.001 s⁻¹	0.00533 ± 0.00091 s⁻¹
A42U A52U	3e-05 ± 6.8e-07 s⁻¹	2350 ± 200 µM		< 1e-05 s⁻¹	< 1e-05 s⁻¹		2.43e-05 ± 9.1e-06 s⁻¹
C16U U65G C67G	0.0015 ± 8.8e-05 s⁻¹	1420 ± 160 µM	3.76e-05 ± 1.7e-05 s⁻¹		0.000493 ± 0.00013 s⁻¹	0.000981 ± 0.00024 s⁻¹	0.00128 ± 0.00032 s⁻¹
